Test results from article doi:10.1101/2023.12.06.570360.

Target: Htz1(T46C)-2xFLAG (yeast histone H2A.Z with a cysteine probe) (S. cerevisiae)
Assay: cross-linking

percent of bulk H2A.Z in the H2A-to-H2A.Z cross-linked adduct (WT cells) [%] | percent of bulk H2A.Z in the H2A.Z-to-H2A.Z cross-linked adduct (WT cells) [%] | Substance
57 |  | Hta1(N39C) (yeast histone H2A with a cysteine probe) (natural protein)
 | 12 | Htz1(T46C)-2xFLAG (yeast histone H2A.Z with a cysteine probe) (natural protein)
